Assay results from US20260008830A1 (FUNDACI CENTRE DE REGULACI GEN MICA, published 2026).
Residue numbers refer to the chain shown, from its start. Names and notes keep the numbering of the source. Values belong to the binder of their own block, whether it stands above or below them.

Target: T1, IL-10 receptors R1 and R2 on HEK-Blue IL-10 reporter cells (UniProt Q13651 22-578; Q08334 20-325, limits assumed)
T1 sequence (looked up) 1: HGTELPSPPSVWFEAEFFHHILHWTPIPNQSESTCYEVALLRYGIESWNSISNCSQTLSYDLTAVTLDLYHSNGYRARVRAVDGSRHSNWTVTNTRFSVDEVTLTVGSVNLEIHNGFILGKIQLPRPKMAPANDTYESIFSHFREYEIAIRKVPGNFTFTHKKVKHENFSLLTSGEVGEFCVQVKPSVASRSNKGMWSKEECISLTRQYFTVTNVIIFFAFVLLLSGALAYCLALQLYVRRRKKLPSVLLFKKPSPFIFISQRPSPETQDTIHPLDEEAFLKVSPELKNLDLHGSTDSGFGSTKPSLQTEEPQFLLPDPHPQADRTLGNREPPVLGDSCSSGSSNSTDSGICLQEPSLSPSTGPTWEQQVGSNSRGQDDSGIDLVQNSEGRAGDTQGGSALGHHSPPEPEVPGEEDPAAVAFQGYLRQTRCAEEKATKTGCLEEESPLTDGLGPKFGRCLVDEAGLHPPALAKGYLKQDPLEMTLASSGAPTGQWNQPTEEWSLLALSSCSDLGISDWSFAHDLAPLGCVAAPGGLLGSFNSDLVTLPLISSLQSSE
T1 sequence (looked up) 2: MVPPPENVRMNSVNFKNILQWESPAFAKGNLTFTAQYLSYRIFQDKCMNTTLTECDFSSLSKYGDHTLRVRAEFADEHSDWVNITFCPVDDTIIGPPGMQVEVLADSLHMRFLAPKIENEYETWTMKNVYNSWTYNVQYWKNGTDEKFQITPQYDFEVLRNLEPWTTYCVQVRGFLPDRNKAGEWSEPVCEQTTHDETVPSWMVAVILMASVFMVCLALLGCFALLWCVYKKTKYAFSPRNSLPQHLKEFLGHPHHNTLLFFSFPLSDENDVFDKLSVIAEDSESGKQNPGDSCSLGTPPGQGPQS
Assay: cell-based or functional assay

- Apparent Kd (M) average (HEK-Blue IL-10 SEAP reporter, absorbance 630 nm, saturation binding fit): 2.61e-11 M
- Fold change-apparentKD (against IL-10 ORF): 7.59 fold
B1: Mut3 (IL-10 D28E, S31K, N45S, T155M, N18I, N92I, K99N) (ligand)
chain: MSPGQGTQSENSCTHFPGILPNMLRDLREAFKRVKTFFQMKDQLDSLLLKESLLEDFKGYLGCQALSEMIQFYLEEVMPQAENQDPDIKAHVISLGENLNTLRLRLRRCHRFLPCENKSKAVEQVKNAFNKLQEKGIYKAMSEFDIFINYIEAYMMMKIRN

- Apparent Kd (M) average (HEK-Blue IL-10 SEAP reporter, absorbance 630 nm, saturation binding fit): 6.45e-11 M
- Fold change-apparentKD (against IL-10 ORF): 3.07 fold
B2: Mut2 (IL-10 D28E, S31K, N45S, T155M) (ligand)
chain: B1 chain with I19N, I93N, N100K

- Apparent Kd (M) average (HEK-Blue IL-10 SEAP reporter, absorbance 630 nm, saturation binding fit): 1.45e-10 M
- Fold change-apparentKD (against IL-10 ORF): 1.37 fold
B3: Mut1 (IL-10 D28E, S31R, N45S, T155M) (ligand)
chain: B1 chain with I19N, K32R, I93N, N100K

- Apparent Kd (M) average (HEK-Blue IL-10 SEAP reporter, absorbance 630 nm, saturation binding fit): 2.56e-10 M
- Fold change-apparentKD (against IL-10 ORF): 0.773 fold
B4: MutM (engineered monomeric IL-10 with an inserted polyGly loop between Asn116 and Lys117) (ligand)
chain: MSPGQGTQSENSCTHFPGNLPNMLRDLRDAFSRVKTFFQMKDQLDNLLLKESLLEDFKGYLGCQALSEMIQFYLEEVMPQAENQDPDIKAHVNSLGENLKTLRLRLRRCHRFLPCENGGGSGGKSKAVEQVKNAFNKLQEKGIYKAMSEFDIFINYIEAYMTMKIRN

- Apparent Kd (M) average (HEK-Blue IL-10 SEAP reporter, absorbance 630 nm, saturation binding fit): 1.2e-11 M
- Fold change-apparentKD (against IL-10 ORF): 16.5 fold
B5: MutSC2 (MutSC1 with the Mut3 point mutations) (ligand)
chain: MTQSENSCTHFPGILPNMLRDLREAFKRVKTFFQMKDQLDSLLLKESLLEDFKGYLGCQALSEMIQFYLEEVMPQAENQDPDIKAHVISLGENLNTLRLRLRRCHRFLPCENKSKAVEQVKNAFNKLQEKGIYKAMSEFDIFINYIEAYMMMNNGGLDYLPNMLRDLREAFKRVKTFFQMKDQLDSLLLKESLLEDFKGYLGCQALSEMIQFYLEEVMPQAENQDPDIKAHVISLGENLNTLRLRLRRNHRFLPCENKSKAVEQVKNAFNKLQEKGIYKAMSEFDIFINYIEAYMMMKIRN

- Apparent Kd (M) average (HEK-Blue IL-10 SEAP reporter, absorbance 630 nm, saturation binding fit): 1.9e-11 M
- Fold change-apparentKD (against IL-10 ORF): 10.4 fold
B6: MutSC1 (foldikine_10, single chain dimeric IL-10) (ligand)
chain: MTQSENSCTHFPGNLPNMLRDLRDAFSRVKTFFQMKDQLDNLLLKESLLEDFKGYLGCQALSEMIQFYLEEVMPQAENQDPDIKAHVNSLGENLKTLRLRLRRCHRFLPCENKSKAVEQVKNAFNKLQEKGIYKAMSEFDIFINYIEAYMTMNNGGLDYLPNMLRDLRDAFSRVKTFFQMKDQLDNLLLKESLLEDFKGYLGCQALSEMIQFYLEEVMPQAENQDPDIKAHVNSLGENLKTLRLRLRRNHRFLPCENKSKAVEQVKNAFNKLQEKGIYKAMSEFDIFINYIEAYMTMKIRN
